Test results: patent publication US6399570B1, “Antimicrobial/endotoxin neutralizing polypeptide” (priority 1999, dated 2002)

Tests used:
[1] = tested on: E. coli 0111; test: Time course of E. coli growth in the presence of LF polypeptides; assay type: cell-based; conditions: 50 μM, seven hour time course, OD 600 nm
Description: To investigate whether regions of the molecule involved in GAG binding activity of the 6 kDa LF polypeptide (generated from pepsin digestion) are also involved in the antimicrobial activity of the 6 kDa polypeptide of the present invention, polypeptides of various lengths corresponding to the N-terminal amino acid sequence of LF were tested for the ability to inhibit the growth of E. coli 0111. Overnight cultures were grown over a seven hour time course in the presence of 50 μM of either LF, a 33-mer corresponding to amino acids 1-33 of LF, a 26-mer corresponding to […] of LF, a 27-mer corresponding to amino acids 1-27 of LF. […] This is consistent with LF and the 33-mer inhibiting bacterial growth via different mechanisms. […] The failure of the 26-mer and the 27-mer to inhibit culture growth emphasizes the importance of retaining both clusters of basic residues, at the termini of the 33-mer, for the antimicrobial functionality of polypeptides derived from the N-terminal LF sequence.
Time course of E. coli growth in the presence of LF polypeptides. E. coli cells, clinical isolate strain 0111, were obtained from ATCC. […] Culture growth was monitored spectrophotometrically by measuring optical density at 600 nm at each indicated time point.

[2] = tested on: lipid A from E. coli 0113; test: LAL assay, neutralization of lipid A endotoxin activity (FIG. 6); assay type: biochemical; conditions: lipid A 30 ng/ml
Description: The lipid A region of the LPS molecule is primarily responsible for the inflammatory and toxic effects of LPS. When LPS is released from the microbe, the lipid A portion may become more accessible. The following assays were performed to determine the potential of various amino-terminal LF polypeptides to neutralize the endotoxic activity of the lipid A portion of LPS. LF, the 6 kDa fragment of LF, LF-33, LF-27, and polymyxin B were each tested for the ability to neutralize the endotoxin activity of lipid A from E. coli 0113 (30 ng/ml), using a LAL assay. […] The endotoxin activity of the smaller fragments of LF indicate that endotoxin-neutralizing activity of these small polypeptides is masked when in the context of the intact LF molecule.

B1: LF: 80 kDa iron-binding glycoprotein, purified from human colostrum (protein, UniProt P02788 20-710, looked up)
Lactotransferrin: GRRRSVQWCAVSQPEATKCFQWQRNMRKVRGPPVSCIKRDSPIQCIQAIAENRADAVTLDGGFIYEAGLAPYKLRPVAAEVYGTERQPRTHYYAVAVVKKGGSFQLNELQGLKSCHTGLRRTAGWNVPIGTLRPFLNWTGPPEPIEAAVARFFSASCVPGADKGQFPNLCRLCAGTGENKCAFSSQEPYFSYSGAFKCLRDGAGDVAFIRESTVFEDLSDEAERDEYELLCPDNTRKPVDKFKDCHLARVPSHAVVARSVNGKEDAIWNLLRQAQEKFGKDKSPKFQLFGSPSGQKDLLFKDSAIGFSRVPPRIDSGLYLGSGYFTAIQNLRKSEEEVAARRARVVWCAVGEQELRKCNQWSGLSEGSVTCSSASTTEDCIALVLKGEADAMSLDGGYVYTAGKCGLVPVLAENYKSQQSSDPDPNCVDRPVEGYLAVAVVRRSDTSLTWNSVKGKKSCHTAVDRTAGWNIPMGLLFNQTGSCKFDEYFSQSCAPGSDPRSNLCALCIGDEQGENKCVPNSNERYYGYTGAFRCLAENAGDVAFVKDVTVLQNTDGNNNEAWAKDLKLADFALLCLDGKRKPVTEARSCHLAMAPNHAVVSRMDKVERLKQVLLHQQAKFGRNGSDCPDKFCLFQSETKNLLFNDNTECLARLHGKTTYEKYLGPQYVAGITNLKKCSTSPLLEACEFLRK
For B1, the “growth of E. coli 0111 cultures” value [1] was “transient growth suppressing effect” and the “lipid A neutralizing activity” value [2] was “no appreciable lipid A neutralizing activity”.
